Columns and labels:
[1] = target: T1, recombinant mouse cold-inducible RNA-binding protein (mouse, UniProt P60824 1-172); test: SPR; OpenSPR (Nicoya); OP18 (10 µg/mL in 10 mM acetate pH 5) immobilised on channel 2, channel 1 as reference; analytes eCIRP 31.3-2,000 nM, HMGB1 10-450 nM, αvβ3 integrin 10-100 nM, histone H3 22.5-270 nM in HBST (10 mM HEPES, 150 mM NaCl, 0.005% P20, 5 mM EDTA, pH 7.4); 40 µL/min, 20°C; global fit 1:1; conditions: both partners purified
T1 construct: also called rmCIRP; eCIRP
T1 sequence (looked up): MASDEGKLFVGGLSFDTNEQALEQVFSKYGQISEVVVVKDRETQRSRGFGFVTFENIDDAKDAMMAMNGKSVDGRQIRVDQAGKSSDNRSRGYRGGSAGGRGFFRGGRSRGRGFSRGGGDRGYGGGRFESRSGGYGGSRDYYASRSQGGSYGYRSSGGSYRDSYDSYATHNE

[2] = target: T2, recombinant human high mobility group box 1 (human, UniProt P09429 1-215); test: as above; conditions: both partners purified
T2 construct: human HMGB1, recombinant, bought; see the vendor's sheet; also called rhHMGB1; HMGB1; source: bought: R&D System (Cat. No. 1690-HMB-050)
T2 sequence (looked up): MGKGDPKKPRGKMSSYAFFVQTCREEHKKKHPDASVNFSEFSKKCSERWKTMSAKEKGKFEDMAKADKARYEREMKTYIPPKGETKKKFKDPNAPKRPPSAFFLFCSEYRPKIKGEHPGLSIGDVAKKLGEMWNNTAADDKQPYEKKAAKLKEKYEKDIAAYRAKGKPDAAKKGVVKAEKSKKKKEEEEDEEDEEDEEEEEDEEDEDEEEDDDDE

- binding result [1]: binds
- binding result [2]: binds
B1: opsonic peptide 18 (peptide)
peptide: GNFNSSNIMKTCLQNRGD
notes: also called OP18; source: synthetic peptide (GenScript)
